Experimental data reported in PMC13397619.

B1: NLV2 TCR alpha chain (CDR3α only) (parent)
chain: AGPMKTSYDKVI

Variants of: B1
Assay: T-Switch: Jurkat TCRβ−/− cells expressing a CDR3 saturation-mutagenesis library, stained with two peptide-HLA-A*02:01 tetramers (original and novel peptide) plus anti-CD3, FACS-sorted into four gates, gDNA sequenced
Conditions: tetramers 1 µg/mL, 30 min on ice, SP, DP and SW gates expanded about 10 days between rounds ('two to three rounds of selection' in the Methods), unresolved parent, parent is a CDR3 fragment, scale: fold enrichment, numbering: sequential-on-construct, sequence starts at 1
[1] = with both tetramers (double-negative gate, binds neither): HLA-A*02:01 with … and with …, gate DN: OPPOSITE: higher = more of the variant in the gate that binds neither peptide = LESS binding (or no expression; inferred). Fold enrichment of the CDR3 variant in one FACS gate of a two-tetram
[2] = with both tetramers (double-positive gate): HLA-A*02:01 with … and with …, gate DP: higher = more of the variant in the gate that binds both peptides. Fold enrichment of the CDR3 variant in one FACS gate of a two-tetramer stain. SP/DP/SW gates were expanded and re-sorted bef

Question: For […] (CDR3 as printed); G2T derived by comparing it with the table's wild-type CDR3 AGPMKTSYDKVI, which enrichment [1] is on record?
Answer: 0.533

Question: What about the enrichment [2] of the same variant?
Answer: 0

Question: How did the enrichment [1] turn out when […] (CDR3 as printed); V11E derived by comparing it with the table's wild-type CDR3 AGPMKTSYDKVI was run?
Answer: 1.34

Question: What about the enrichment [2] of the same variant?
Answer: 0

Question: How did the enrichment [1] turn out when […] (CDR3 as printed); S7D derived by comparing it with the table's wild-type CDR3 AGPMKTSYDKVI was run?
Answer: 0.804

Question: What about the enrichment [2] of the same variant?
Answer: 0

Question: Which results are given for […] (CDR3 as printed); Y8D derived by comparing it with the table's wild-type CDR3 AGPMKTSYDKVI?
Answer: enrichment [1]: 0.393; enrichment [2]: 40.5

Question: Which enrichment [1] does the source give for […] (CDR3 as printed); A1W derived by comparing it with the table's wild-type CDR3 AGPMKTSYDKVI here?
Answer: 0.77

Question: And the enrichment [2]?
Answer: 0

Question: For […] (CDR3 as printed); K5P derived by comparing it with the table's wild-type CDR3 AGPMKTSYDKVI, which enrichment [1] is on record?
Answer: 0.356

Question: And the enrichment [2]?
Answer: 0

Question: Which enrichment [1] does the source give for […] (CDR3 as printed); S7V derived by comparing it with the table's wild-type CDR3 AGPMKTSYDKVI here?
Answer: 0.928

Question: What about the enrichment [2] of the same variant?
Answer: 0

Question: Which enrichment [1] does the source give for […] (CDR3 as printed); K10L derived by comparing it with the table's wild-type CDR3 AGPMKTSYDKVI here?
Answer: 1.05

Question: And the enrichment [2]?
Answer: 0

Question: With […] (CDR3 as printed); G2E derived by comparing it with the table's wild-type CDR3 AGPMKTSYDKVI as the variant, how does the enrichment [1] read?
Answer: 0.844

Question: And the enrichment [2]?
Answer: 0

Question: […] (CDR3 as printed); M4I derived by comparing it with the table's wild-type CDR3 AGPMKTSYDKVI was tested. Which enrichment [1] did it give?
Answer: 0.318

Question: And the enrichment [2]?
Answer: 0

Question: Which enrichment [1] does the source give for […] (CDR3 as printed); Y8I derived by comparing it with the table's wild-type CDR3 AGPMKTSYDKVI here?
Answer: 1.11

Question: And the enrichment [2]?
Answer: 0

Question: […] (CDR3 as printed); M4D derived by comparing it with the table's wild-type CDR3 AGPMKTSYDKVI was tested. Which enrichment [1] did it give?
Answer: 0.825

Question: What about the enrichment [2] of the same variant?
Answer: 0

Question: With […] (CDR3 as printed); M4F derived by comparing it with the table's wild-type CDR3 AGPMKTSYDKVI as the variant, how does the enrichment [1] read?
Answer: 1.34

Question: And the enrichment [2]?
Answer: 0

Question: With […] (CDR3 as printed); T6K derived by comparing it with the table's wild-type CDR3 AGPMKTSYDKVI as the variant, how does the enrichment [1] read?
Answer: 1.04

Question: What about the enrichment [2] of the same variant?
Answer: 0

Question: What does the source list for […] (CDR3 as printed); D9G derived by comparing it with the table's wild-type CDR3 AGPMKTSYDKVI?
Answer: enrichment [1]: 1.23; enrichment [2]: 0

Question: Which enrichment [1] does the source give for […] (CDR3 as printed); K5V derived by comparing it with the table's wild-type CDR3 AGPMKTSYDKVI here?
Answer: 0.87

Question: And the enrichment [2]?
Answer: 0

Question: What does the source list for […] (CDR3 as printed); S7F derived by comparing it with the table's wild-type CDR3 AGPMKTSYDKVI?
Answer: enrichment [1]: 1.22; enrichment [2]: 0

Question: Which results are given for […] (CDR3 as printed); M4R derived by comparing it with the table's wild-type CDR3 AGPMKTSYDKVI?
Answer: enrichment [1]: 0.913; enrichment [2]: 0

Question: Which results are given for […] (CDR3 as printed); K5F derived by comparing it with the table's wild-type CDR3 AGPMKTSYDKVI?
Answer: enrichment [1]: 0.857; enrichment [2]: 0

Question: […] (CDR3 as printed); M4S derived by comparing it with the table's wild-type CDR3 AGPMKTSYDKVI was tested. Which enrichment [1] did it give?
Answer: 0.52

Question: And the enrichment [2]?
Answer: 0

Question: For […] (CDR3 as printed); S7M derived by comparing it with the table's wild-type CDR3 AGPMKTSYDKVI, which enrichment [1] is on record?
Answer: 1.3

Question: And the enrichment [2]?
Answer: 0

Question: With […] (CDR3 as printed); Y8N derived by comparing it with the table's wild-type CDR3 AGPMKTSYDKVI as the variant, how does the enrichment [1] read?
Answer: 0.932

Question: What about the enrichment [2] of the same variant?
Answer: 0

Question: How did the enrichment [1] turn out when […] (CDR3 as printed); K10W derived by comparing it with the table's wild-type CDR3 AGPMKTSYDKVI was run?
Answer: 1.38

Question: And the enrichment [2]?
Answer: 0

Question: […] (CDR3 as printed); G2R derived by comparing it with the table's wild-type CDR3 AGPMKTSYDKVI was tested. Which enrichment [1] did it give?
Answer: 0.977

Question: What about the enrichment [2] of the same variant?
Answer: 0

Question: Which enrichment [1] does the source give for […] (CDR3 as printed); K10S derived by comparing it with the table's wild-type CDR3 AGPMKTSYDKVI here?
Answer: 1.01

Question: What about the enrichment [2] of the same variant?
Answer: 0

Question: Which results are given for […] (CDR3 as printed); I12K derived by comparing it with the table's wild-type CDR3 AGPMKTSYDKVI?
Answer: enrichment [1]: 0.703; enrichment [2]: 0

Question: What does the source list for […] (CDR3 as printed); K10F derived by comparing it with the table's wild-type CDR3 AGPMKTSYDKVI?
Answer: enrichment [1]: 1.13; enrichment [2]: 0

Question: How did the enrichment [1] turn out when […] (CDR3 as printed); K10R derived by comparing it with the table's wild-type CDR3 AGPMKTSYDKVI was run?
Answer: 0.909

Question: What about the enrichment [2] of the same variant?
Answer: 0

Question: Which results are given for […] (CDR3 as printed); D9M derived by comparing it with the table's wild-type CDR3 AGPMKTSYDKVI?
Answer: enrichment [1]: 0.931; enrichment [2]: 0

Question: Which results are given for […] (CDR3 as printed); D9P derived by comparing it with the table's wild-type CDR3 AGPMKTSYDKVI?
Answer: enrichment [1]: 1.22; enrichment [2]: 0

Question: For […] (CDR3 as printed); T6A derived by comparing it with the table's wild-type CDR3 AGPMKTSYDKVI, which enrichment [1] is on record?
Answer: 0.82

Question: What about the enrichment [2] of the same variant?
Answer: 0

Question: For […] (CDR3 as printed); G2P derived by comparing it with the table's wild-type CDR3 AGPMKTSYDKVI, which enrichment [1] is on record?
Answer: 0.883

Question: What about the enrichment [2] of the same variant?
Answer: 0

Question: What does the source list for […] (CDR3 as printed); P3R derived by comparing it with the table's wild-type CDR3 AGPMKTSYDKVI?
Answer: enrichment [1]: 1.32; enrichment [2]: 0

Question: What does the source list for […] (CDR3 as printed); T6Y derived by comparing it with the table's wild-type CDR3 AGPMKTSYDKVI?
Answer: enrichment [1]: 1.48; enrichment [2]: 0

Question: Which enrichment [1] does the source give for […] (CDR3 as printed); M4Q derived by comparing it with the table's wild-type CDR3 AGPMKTSYDKVI here?
Answer: 0.551

Question: What about the enrichment [2] of the same variant?
Answer: 0

Question: What does the source list for […] (CDR3 as printed); D9C derived by comparing it with the table's wild-type CDR3 AGPMKTSYDKVI?
Answer: enrichment [1]: 0.717; enrichment [2]: 0

Question: Which results are given for […] (CDR3 as printed); I12N derived by comparing it with the table's wild-type CDR3 AGPMKTSYDKVI?
Answer: enrichment [1]: 1.04; enrichment [2]: 0

Question: For […] (CDR3 as printed); I12H derived by comparing it with the table's wild-type CDR3 AGPMKTSYDKVI, which enrichment [1] is on record?
Answer: 1.04

Question: And the enrichment [2]?
Answer: 0

Question: What does the source list for […] (CDR3 as printed); Y8P derived by comparing it with the table's wild-type CDR3 AGPMKTSYDKVI?
Answer: enrichment [1]: 1.08; enrichment [2]: 0

Question: […] (CDR3 as printed); P3W derived by comparing it with the table's wild-type CDR3 AGPMKTSYDKVI was tested. Which enrichment [1] did it give?
Answer: 0.887

Question: And the enrichment [2]?
Answer: 0

Question: With […] (CDR3 as printed); P3A derived by comparing it with the table's wild-type CDR3 AGPMKTSYDKVI as the variant, how does the enrichment [1] read?
Answer: 1.21

Question: And the enrichment [2]?
Answer: 0

Question: What does the source list for […] (CDR3 as printed); V11T derived by comparing it with the table's wild-type CDR3 AGPMKTSYDKVI?
Answer: enrichment [1]: 1.12; enrichment [2]: 0

Question: How did the enrichment [1] turn out when […] (CDR3 as printed); V11L derived by comparing it with the table's wild-type CDR3 AGPMKTSYDKVI was run?
Answer: 0.656

Question: And the enrichment [2]?
Answer: 0

Question: How did the enrichment [1] turn out when […] (CDR3 as printed); K5H derived by comparing it with the table's wild-type CDR3 AGPMKTSYDKVI was run?
Answer: 0.696

Question: And the enrichment [2]?
Answer: 0

Question: With […] (CDR3 as printed); G2L derived by comparing it with the table's wild-type CDR3 AGPMKTSYDKVI as the variant, how does the enrichment [1] read?
Answer: 0.978

Question: And the enrichment [2]?
Answer: 0

Question: Which enrichment [1] does the source give for […] (CDR3 as printed); T6R derived by comparing it with the table's wild-type CDR3 AGPMKTSYDKVI here?
Answer: 0.792

Question: And the enrichment [2]?
Answer: 0

Question: Which enrichment [1] does the source give for […] (CDR3 as printed); G2S derived by comparing it with the table's wild-type CDR3 AGPMKTSYDKVI here?
Answer: 1.02

Question: What about the enrichment [2] of the same variant?
Answer: 0

Question: For […] (CDR3 as printed); I12C derived by comparing it with the table's wild-type CDR3 AGPMKTSYDKVI, which enrichment [1] is on record?
Answer: 1.05

Question: And the enrichment [2]?
Answer: 0

Question: […] (CDR3 as printed); T6L derived by comparing it with the table's wild-type CDR3 AGPMKTSYDKVI was tested. Which enrichment [1] did it give?
Answer: 1.1

Question: What about the enrichment [2] of the same variant?
Answer: 0

Question: Which enrichment [1] does the source give for […] (CDR3 as printed); A1V derived by comparing it with the table's wild-type CDR3 AGPMKTSYDKVI here?
Answer: 0.809

Question: And the enrichment [2]?
Answer: 0

Question: […] (CDR3 as printed); G2N derived by comparing it with the table's wild-type CDR3 AGPMKTSYDKVI was tested. Which enrichment [1] did it give?
Answer: 0.848

Question: And the enrichment [2]?
Answer: 0

Question: What does the source list for […] (CDR3 as printed); K5G derived by comparing it with the table's wild-type CDR3 AGPMKTSYDKVI?
Answer: enrichment [1]: 0.602; enrichment [2]: 0

Question: What does the source list for […] (CDR3 as printed); G2D derived by comparing it with the table's wild-type CDR3 AGPMKTSYDKVI?
Answer: enrichment [1]: 1.02; enrichment [2]: 0

Question: Which results are given for […] (CDR3 as printed); T6N derived by comparing it with the table's wild-type CDR3 AGPMKTSYDKVI?
Answer: enrichment [1]: 0.879; enrichment [2]: 0

Question: […] (CDR3 as printed); D9R derived by comparing it with the table's wild-type CDR3 AGPMKTSYDKVI was tested. Which enrichment [1] did it give?
Answer: 1.08

Question: What about the enrichment [2] of the same variant?
Answer: 0

Question: Which enrichment [1] does the source give for […] (CDR3 as printed); A1N derived by comparing it with the table's wild-type CDR3 AGPMKTSYDKVI here?
Answer: 0.847

Question: And the enrichment [2]?
Answer: 0

Question: Which enrichment [1] does the source give for […] (CDR3 as printed); K5T derived by comparing it with the table's wild-type CDR3 AGPMKTSYDKVI here?
Answer: 0.493

Question: What about the enrichment [2] of the same variant?
Answer: 0.931
